This is an account of results in patent US7329737 (DYAX, dated 2008).

Where a chain is given by its changes, count along the chain named.

For assay [1], the target named is T1, hK1 (human tissue kallikrein 1), recombinant (human, UniProt P06870 25-262).
T1 construct: Expressed in P. pastoris from KLK1 cDNA and purified; enzymatically active; also called KLK1; Recombinant (Pichia) Kallikrein
The assay can be described thus: SPR. For orientation: In SPR one partner is held on a chip, and binding of the other changes the refractive index at the surface.

Assay [2] addresses T1, hK1 (human tissue kallikrein 1), …. The assay can be described thus: cell-based or functional assay.
Assay [3] has the same target. The experiment in a line: SPR, biotinylated hK1 on streptavidin chip; Fab 50 nM after DX-2300 50 nM (competitor DX-2300).
Description: Epitope grouping by SPR. Biotinylated hK1 was captured on a streptavidin coated chip to a final ligand density of 88 RU. […] The signal at the end of the injection of the Fab alone is R2.

B1: M0138-C09 (Fab, V domains shown)
VH: EVQLLESGGGLVQPGGSLRLSCAASGFTFSPYRMSWVRQAPGKGLEWVSVISPSGGITEYADSVKGRFTISRDNSKNTLYLQMNSLRAEDTAVYYCAKHERGSGYYVTPPAGAFDIWGQGTMVTVSS
VL: AQSELTQPASVAGSPGQSITISCTGTSSDVGLYNFVSWYQQHPGKAPKLMIYDVSRRPSGVSNRFSASKSGTRASLTVSGLQAEDEADYYCSSYAGSNNYVFGTGTKVTVLG
Consider B1, for which, in assay [1], the Kd (in general, the concentration at which binding is half-saturated) worked out at 8.78 nM; the koff (usually the rate constant with which the complex falls apart) came out at 0.00153 s⁻¹; the kon – broadly, the rate constant with which the complex forms – was found to be 175000 M⁻¹ s⁻¹. In addition, the “IC50 (nM), inhibition of hK1 hydrolysis of Pro-Phe-Arg-AMC” value in assay [2] was determined as 10.9 nM.

B2: M0139-A09 (Fab, V domains shown)
VH: EVQLLESGGGLVQPGGSLRLSCAASGFTFSWYFMVWVRQAPGKGLEWVSGIGPSGGLTTYADSVKGRFTISRDNSKNTLYLQMNSLRAEDTAVYYCARSDWLNYWGQGTLVTVSS
VL: DIVMTQTPPSLPVNPGEPASISCRSSQSLVYSDGNTYLNWFQQRPGQSPRRLIYKVSNRDSGVPDRFSGSGSGTDFTLKISRVEAEDVGVYYCMQGTHWQRLTFGGGTKVEIKR
On to B2, for which, in assay [1], the Kd amounted to 5.48 nM, the koff was found to be 0.00106 s⁻¹ and the kon was found to be 194000 M⁻¹ s⁻¹. Moreover, in assay [2], the “IC50 (nM), inhibition of hK1 enzyme activity” value was 34 nM. The “Fab Signal following DX-2300 (R1)” value in assay [3] amounted to 25.7.

B3: M0102-E09 (Fab, V domains shown)
VH: EVQLLESGGGLVQPGGSLRLSCAASGFTFSLYLMEWVRQAPGKGLEWVSSIGSSGGATWYADSVKGRFTISRDNSKNTLYLQMNSLRAEDTAMYYCATDTSRVAGTRLRNYYYYYGMDVWGQGTTVTVSS
VL: DIQMTQSPDSLSLSPGERATLSCRASQSISSSYLAWYQQTPGQAPRLLIYHASSRATGVPARFSGSGSGTDFTLTISSLEPEDFAVYYCQQRNNWPPSFTFGGGTKVETKR
As to B3, the “IC50 (nM), inhibition of hK1 hydrolysis of Pro-Phe-Arg-AMC” value in assay [2] turned out to be 0.89 nM.

B4: M0136-A07 (Fab, V domains shown)
VH: EVQLLESGGGLVQPGGSLRLSCAASGFTFSWYHMYWVRQAPGKGLEWVSYIRPSGGNTNYADSVKGRFTISRDNSKNTLYLQMNSLRAEDTAMYYCARDRRGYSSSKGYYYYGMDVWGQGTTVTVSS
VL: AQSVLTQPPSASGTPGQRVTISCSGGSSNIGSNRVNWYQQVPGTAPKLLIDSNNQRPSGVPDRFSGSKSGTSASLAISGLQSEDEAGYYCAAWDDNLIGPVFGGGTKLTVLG
notes: No HC-136-A07 entry is printed
Regarding B4, in assay [1], the Kd turned out to be 7.98 nM, the koff is 0.00258 s⁻¹ and the kon was found to be 323000 M⁻¹ s⁻¹. For the same molecule, the “IC50 (nM), inhibition of hK1 enzyme activity” value in assay [2] came to 25 nM. Further, the “Fab Signal following DX-2300 (R1)” value in assay [3] is 5.

B5: M0097-G01 (Fab, V domains shown)
VH: EVQLLESGGGLVQPGGSLRLSCAASGFTFSPYYMQWVRQAPGKGLEWVSGISSSGGSTQYADSVKGRFTISRDNSKNTLYLQMNSLRAEDTAVYYCARSQRRTYYPNFGDAFDIWGQGTMVTVSS
VL: DIQMTQSPSSLSASVGDRVTITCRASQGIGNYLVWYQHKPGNVPRVLIYAASTLQSGVPSRFRGSGSGTDFTLTISGLQPEDVATYYCQKYDGAPFTFGPGTKVDLKR
B5: in assay [1], the Kd was 4.8 nM, the koff is 0.000832 s⁻¹ and the kon worked out at 173000 M⁻¹ s⁻¹. The “IC50 (nM), inhibition of hK1 hydrolysis of Pro-Phe-Arg-AMC” value in assay [2] was 7.2 nM.

B6: M0098-E09 (Fab, V domains shown)
VH: EVQLLESGGGLVQPGGSLRLSCAASGFTFSRYGMQWVRQAPGKGLEWVSYIYPSGGGTVYADSVKGRFTISRDNSKNTLYLQMNSLRAEDTAVYYCARRVAVAGSWYYYYYGMDVWGQGTTVTVSS
VL: DIQMTQSPSSVSASVGDSVTISCWTIYDISSWLAWYQQRPGQAPKLLIYAASRLATGVPSRFRGSGSGTDFTLTITNLQPEDVATYYCQQTKDFPLTFGGGTRVDLKR
Consider B6, for which, in assay [1], the Kd was 1.91 nM, the dissociation rate constant (koff) came to 0.00159 s⁻¹ and the kon was 836000 M⁻¹ s⁻¹. Also, the “IC50 (nM), inhibition of hK1 hydrolysis of Pro-Phe-Arg-AMC” value in assay [2] came out at 2.5 nM. The “Fab Signal following DX-2300 (R1)” value in assay [3] amounted to 8.5.

B7: M0114-G06 (Fab, V domains shown)
VH: EVQLLESGGGLVQPGGSLRLSCAASGFTFSYYEMEWVRQAPGKGLEWVSSIRPSGGRTVYADSVKGRFTISRDNSKNTLYLQMNSLRAEDTAVYYCAKGRSNYYGSGSYSPKYFQHWGQGTLVTVSS
VL: DIQMTQSPSSLSASVGDRVTITCRASQGISSWLAWYQQRPERAPKSLIYAASSLERGVPSRFRGSGSGTDFTLTISSLQPEDFGTYYCQQYHNFPLTFGGGTRVEINR
Consider B7, for which, in assay [1], the Kd stood at 0.999 nM, the koff came out at 0.000166 s⁻¹ and the kon was 167000 M⁻¹ s⁻¹. Also, the “IC50 (nM), inhibition of hK1 hydrolysis of Pro-Phe-Arg-AMC” value in assay [2] came out at 1.2 nM. Moreover, in assay [3], the “Fab Signal following DX-2300 (R1)” value was found to be 4.8.

B8: M0102-H11 (Fab, V domains shown)
VH: EVQLLESGGGLVQPGGSLRLSCAASGFTFSKYPMTWVRQAPGKGLEWVSSISSSGGKTQYADSVKGRFTISRDNSKNTLYLQMNSLRAEDTAVYYCTRGGSSTLYFMDVWGQGTTVTVSS
VL: DIQMTQSPATLSLSPGERATLSCRASQSVSSYLAWYQQKPGQAPRLLIYGASSRATGIPDRFSGSGSGTDFTLTISSLEPEDFAVYYCQQRGGWPLTFGGGTKVEIRR
For the molecule B8, in assay [1], the Kd was 3.24 nM, the koff was 0.00741 s⁻¹ and the kon came to 2.29e+06 M⁻¹ s⁻¹. Moreover, the “IC50 (nM), inhibition of hK1 hydrolysis of Pro-Phe-Arg-AMC” value in assay [2] was determined as 4.5 nM.

B9: M0139-F04 (Fab, V domains shown)
VH: EVQLLESGGGLVQPGGSLRLSCAASGFTFSRYYMEWVRQAPGKGLEWVSSISSSGGSTEYADSVKGRFTISRDNSKNTLYLQMNSLRAEDTAVYYCAKDITPGGGSGFRLPKNYYYYGMDVWGQGTTVTVSS
VL: DIQMTQSPSSLSASVGDRVTITCRASQAISTNLNWYQQKPGKAPKLLIYAASSLQSGVPSRFIGSGSGTDFTLTISSLHPEDFATYHCQQTFSPPHTFGQGTKVEIQR
For B9, in assay [1], the equilibrium dissociation constant (Kd) was 7.27 nM, the koff worked out at 0.00134 s⁻¹ and the kon was determined as 184000 M⁻¹ s⁻¹. For the same molecule, in assay [2], the “IC50 (nM), inhibition of hK1 hydrolysis of Pro-Phe-Arg-AMC” value stood at 20.7 nM.

B10: M0102-G12 (Fab, V domains shown)
VH: B9 VH with R31K, Y33K, E35V, S52Y, S53P, S57I, E59A, V93M
VL: AQSELTQPPSASGTPGQRVTISCSGTLSNIGTNIVSWFQQLPGTAPKLLIYNDHRRPSGVPDRFSGSKSATSASLAISGLQSEDEADYYCAAWDDSLNGVVFGGGTKLTVLS
As to B10, in assay [1], the Kd was determined as 5.28 nM, the koff worked out at 0.000442 s⁻¹ and the association rate constant (kon) came out at 83700 M⁻¹ s⁻¹. Further, in assay [2], the “IC50 (nM), inhibition of hK1 hydrolysis of Pro-Phe-Arg-AMC” value amounted to 3.3 nM.

B11: M0139-E12 (Fab, V domains shown)
VH: EVQLLESGGGLVQPGGSLRLSCAASGFTFSWYSMNWVRQAPGKGLEWVSSIGPSGGGTKYADSVKGRFTISRDNSKNTLYLQMNSLRAEDTAVYYCASRGQRKQWLPPNGAFDIWGQGTMVTVSS
VL: DIQMTQSPSSVSASVGDRVTMTCRASRGISNWLAWYQQKPGKAPELLIHSASTLHAGVPSRFSGSGSGTDFTLTISSLQPGDFATYYCQEGNSFPYTFGQGTNLQIKR
Take B11: in assay [1], the Kd was 1.87 nM, the koff is 0.000233 s⁻¹ and the kon came out at 125000 M⁻¹ s⁻¹. For the same molecule, in assay [2], the “IC50 (nM), inhibition of hK1 hydrolysis of Pro-Phe-Arg-AMC” value worked out at 2.9 nM.

B12: M0097-F03 (Fab, V domains shown)
VH: EVQLLESGGGLVQPGGSLRLSCAASGFTFSNYLMYWVRQAPGKGLEWVSSIRPSGGNTLYADSVKGRFTISRDNSKNTLYLQMNSLRAEDTAVYYCRRGILTGYYWGYYYYMDVWGKGTTVTVSS
VL: DIQMTQSPATLSVSPGGRATLSCRASQSVRKNVAWYQQKPGQPPRLLIYGASTRATGVPARFSGSGSGTEFTLTISRMQPEDFVVYHCQQYSSWPAFGQGTMVEINR
On to B12, for which, in assay [2], the “IC50 (nM), inhibition of hK1 hydrolysis of Pro-Phe-Arg-AMC” value was determined as 1.1 nM.

B13: M0133-E02 (Fab, V domains shown)
VH: EVQLLESGGGLVQPGGSLRLSCAASGFTFSWYTMTWVRQAPGKGLEWVSSIYPSGGHTSYADSVKGRFTISRDNSKNTLYLQMNSLRAEDTAVYYCAKDTRVGPWLVRAPLDYWGQGTLVTVSS
VL: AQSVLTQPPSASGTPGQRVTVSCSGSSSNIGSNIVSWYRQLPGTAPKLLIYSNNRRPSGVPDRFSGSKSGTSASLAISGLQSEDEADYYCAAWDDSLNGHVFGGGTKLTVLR
For the molecule B13, in assay [1], the Kd was determined as 6.42 nM, the koff is 0.00146 s⁻¹ and the kon was determined as 227000 M⁻¹ s⁻¹. Also, the “IC50 (nM), inhibition of hK1 hydrolysis of Pro-Phe-Arg-AMC” value in assay [2] was 2.4 nM.

B14: M0138-G11 (Fab, V domains shown)
VH: B13 VH with L79F
VL: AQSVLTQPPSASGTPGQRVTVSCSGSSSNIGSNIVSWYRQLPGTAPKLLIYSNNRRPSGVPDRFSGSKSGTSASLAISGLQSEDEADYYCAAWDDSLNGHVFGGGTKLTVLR
Turning to B14, in assay [1], the Kd turned out to be 6.19 nM, the koff is 0.00161 s⁻¹ and the kon came out at 260000 M⁻¹ s⁻¹. Moreover, the “IC50 (nM), inhibition of hK1 enzyme activity” value in assay [2] was 28 nM.

B15: M0106-G12 (Fab, V domains shown)
VH: EVQLLESGGGLVQPGGSLRLSCAASGFTFSWYRMHWVRQAPGKGLEWVSSIWPSGGKTHYADSVKGRFTISRDNSKNTLYLQMNSLRAEDTAVYYCARALQYGSGSYFYAPKSYYYYGMDVWGQGTTVTVSS
VL: DIQMTQSPSFVSASIGDRVTITCRASQSIGTLLNWYQHKPGTVPSLLIYGNLRGGVPARFSGSGSGTDFTLTISSLQPEDFATYYCQHDTFGGGTKVDIKR
For B15, in assay [2], the “IC50 (nM), inhibition of hK1 hydrolysis of Pro-Phe-Arg-AMC” value worked out at 5.1 nM.

B16: M0136-E10 (Fab, V domains shown)
VH: EVQLLESGGGLVQPGGSLRLSCAASGFTFSPYNMAWVRQAPGKGLEWVSSIWPSGGRTRYADSVKGRFTISRDNSKNTLYLQMNSLRAEDTAVYYCAKGVRSSGLLERGRVYDAFDIWGQGTMVTVSS
VL: DIQMTQSPGTLSLSPGERATLSCRASQSVTTFLAWYQRKPGQAPRLLIYGASSRAADIPDRFSGSGSGTDFTLTISRLEPEDLAVYYCQQYRFSPPTFGPGTTVDIRR
In the case of B16, in assay [1], the Kd amounted to 9.66 nM, the off-rate constant (koff) came to 0.00106 s⁻¹ and the kon was 110000 M⁻¹ s⁻¹. Moreover, the “IC50 (nM), inhibition of hK1 enzyme activity” value in assay [2] stood at 22 nM.

B17: M0111-D11 (Fab, V domains shown)
VH: EVQLLESGGGLVQPGGSLRLSCAASGFTFSWYAMMWVRQAPGKGLEWVSSIWPSGGHTKYADSVKGRFTISRDNSKNTLYLQMNSLRAEDTAVYYCATDQGYFWGQGTLVTVSS
VL: DIQMTQSPATLSLSPGDRATLSCRASQRVSSTFLAWYQQRPGQAPRLVIFGTSSRATGIPDRFSGSGSGTDFTLTISRLEPEDFAVYYCHQYGSSPRTFGQGTKVEIKR
With B17, in assay [2], the “IC50 (nM), inhibition of hK1 enzyme activity” value was 160 nM.
